Reference: the supplement of paper PMC10567573

B1: PBXIP1 (parent)
chain: EKQKQPRWREGTKDSHDPLPSWAE
B2: BEX1 (parent)
chain: EENMERIGEEVRQLMEKLREKQLS

Variants of: B1
Assay: protein stability index of a GFP-peptide fusion (GPS, HEK-293T) (PSI 1-6); higher = more stable
Details: c terminus: a fixed tail appended
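Also: lentivirally expressed fusions sorted by FACS into six bins by GFP to DsRed ratio, PSI derived from sequencing read proportions per bin multiplied by bin number.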

Protein stability index of substitutions, site by site:
R7: H 2.05; W 2.53; P 2.33; A 1.59; Y 1.47; S 1.23; L 1.32; D 2.47; C 5.92; N 3.14; K 2.02; F 2.54; T 1.57; G 2.14; I 1.96; M 1.94
K4: W 1; F 1.99; I 3.8; A 1.72; C 2.63; R 2.07; Y 3; G 1.89; Q 1.92; E 1.59; N 2.02; T 1.92; P 1.56; M 1.54; D 1.72; H 2.66; V 1.21; S 1.85
Q5: A 3.71; K 2.18; P 1.68; C 3.72; D 1.99; G 1.99; N 2.1; E 2.66; Y 2.37; R 2.57; M 1.55; F 2.09; H 2.11; L 1.82
Q3: R 2.14; Y 1.32; N 2.58; T 1.89; C 2.21; G 2.03; L 1.59; H 1.78; W 1.41; V 1.34; P 1.63; S 1.55
L19: S 1.77; D 1.99; K 1.68; P 1.73; N 2.49; C 1.51; E 3.44; G 2.56; T 2.27; H 2.63; R 2.86
D17: A 1.39; I 1.48; S 1.86; E 1.39; R 2.27; Y 1.5; C 3.64; T 1.43; V 3.08; N 1.97; K 1.24; L 1.58; P 1.94
W22: E 5.99; D 5.82; H 5.32; I 5.01; K 5.42; A 5.8
G11: M 2.78; H 3.13; P 1.77; L 2.31; I 1.69; Y 1.98; E 1.15; Q 1.68; D 2.02; R 1.46; S 2.61; F 2.88
W8: A 2.09; R 2.54; D 3.2; G 2.04; F 1.88; H 2.41; C 2.31; Y 1.94; E 3.08; T 1.58; I 2.06; K 2.46; M 2; N 3.03; V 2.05
E1: I 2.16; R 2.19; G 1.66; H 2.64; Q 2; T 2.38; P 1.22; C 2.08; L 2.19; A 2.67; K 2.33; F 1.4; M 1.7
R9: T 2.17; W 1.66; A 1.79; C 1.39; K 2.32; M 2.35; H 1.04; P 1.84; S 1.39; E 3.15; L 2.48; I 1.89; D 1.76; Q 1.34
S15: K 2.02; N 1.63; W 1.54; T 1.96; A 2.65; Q 1.8; C 2.95; P 1.26; M 3.08; D 1.84; E 1.37; G 1.68; L 1.27
H16: E 3.06; C 3.68; K 1.93; M 1.07; Y 1.39; W 1.37; P 2.26; I 1.98; V 1.69; S 2.56; N 2.85; D 2.05
E10: I 2.1; R 2.2; T 3.55; L 1.96; C 2.32; G 1.05; A 1.14; S 1.18; Q 1.83; F 2.27; D 3; K 2.34; W 1.53
S21: V 2.68; T 2.62; Q 3.03; D 4.6; G 2.93; W 4.58; L 2; Y 3.67; F 2.54; N 2.01; H 3.27; K 1.75; M 2.6; I 2.56; E 3.19
K2: R 2.02; P 1.77; S 2.15; Q 2.69; Y 2.81; N 1.46; H 1.66; F 1.85; C 2.96; D 2.04; W 1.43; E 3.03; I 2.63; G 2.97
T12: H 2.89; A 2; K 2.38; L 2.31; E 1.61; R 2.71; I 2.34; M 2.69; F 1.33; Y 1.01
P18: M 1.88; V 3.04; Q 1.96; Y 1.95; T 1.87; D 1.75; S 1.29; H 1.75; N 1.92
P6: Y 3.67; S 2.4; W 1.98; L 2.79; G 2.11; H 2.53; E 1.89; C 1.48; A 1.3; D 2.48; F 2.43; T 3.31
D14: C 1.1; T 1.8; M 1.96; P 1.83; F 1.46; S 3.28; Y 2.35; Q 1.87; K 2.66
P20: W 1.44; D 1.79; F 1.52; I 2.48; K 2.66; Y 1.75; A 2.13; M 1.31; N 1.88; R 2; Q 2.45; H 2.22
K13: D 2.18; Q 1.29; C 1.28; N 2.35; A 2.15; V 1.52; H 2.96

Variants of: B2
Assay: as above
Details: c terminus: a fixed tail appended

Protein stability index, by site and new letter:
S24: W 3.99; F 4.32; T 4.29; Y 3.91; G 4.78; L 4.21; D 4.91; C 4.8; M 4.43; Q 4.95; V 4.67; I 3.97; K 3.54
L23: W 4.68; D 5.21; A 4.63; C 4.73; F 4.58; I 5.26; Y 5.23; M 4.1; S 3.89; V 3.88; T 5.19; E 4.46; Q 4.97; H 4.65
Q22: D 4.73; S 3.92; T 3.59; A 2.82; N 5.16; W 2.28; P 3.67; C 2.46; G 4.18; M 1.08
K21: H 3.15; D 4.97; C 1.67; S 4.25; T 5.02; F 4.64; W 4.07; E 3.26; Y 3.04; A 4.11; I 3.7; N 4.61; Q 4.53
E20: H 3.74; S 4.57; R 4.46; F 2.75; L 4.29; W 2.19
R19: S 4.21; H 5.32; T 4.76; L 2.82; N 5.13; K 4.74; Y 3.92; P 5.54
